Data reported in patent US20130136731.

Target: thrombin, P00734

B1: native tissue plasminogen activator (protein)
chain: SYQVICRDEKTQMIYQQHQSWLRPVLRSNRVEYCWCNSGRAQCHSVPVKSCSEPRCFNGGTCQQALYFSDFVCQCPEGFAGKCCEIDTRATCYEDQGISYRGTWSTAESGAECTNWNSSALAQKPYSGRRPDAIRLGLGNHNYCRNPDRDSKPWCYVFKAGKYSSEFCSTPACSEGNSDCYFGNGSAYRGTHSLTESGASCLPWNSMILIGKVYTAQNPSAQALGLGKHNYCRNPDGDAKPWCHVLKNRRLTWEYCDVPSCSTCGLRQYSQPQFRIKGGLFADIASHPWQAAIFAKHRRSPGERFLCGGILISSCWILSAAHCFQERFPPHHLTVILGRTYRVVPGEEEQKFEVEKYIVHKEFDDDTYDNDIALLQLKSDSSRCAQESSVVRTVCLPPADLQLPDWTECELSGYGKHEALSPFYSERLKEAHVRLYPSSRCTSQHLLNRTVTDNMLCAGDTRSGGPQANLHDACQGDSGGPLVCLNDGRMTLVGIISWGLGCGQKDVPGVYTKVTNYLDWIRDNMRP
clotting time assay (fibrin mesh formation): fibrin mesh formation in presence or absence of native tPA up to high micro molar concentrations was essentially unaltered compared to buffer controls
